B1: ANKRD40 (parent)
chain: VRIQNPSLRENDFIEIELDRQELT
B2: TRIM55 (parent)
chain: FQMEKIEHGYENMNHFTVNLNREE

Variants of: B1
Experiment: protein stability index of a GFP-peptide fusion (GPS, HEK-293T) (PSI 1-6); higher = more stable
Settings: c terminus: a fixed tail appended
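Further: lentivirally expressed fusions sorted by FACS into six bins by GFP to DsRed ratio, PSI derived from sequencing read proportions per bin multiplied by bin number.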

Protein stability index of substitutions, site by site:
L23: W 2.42, V 2.95, P 3.26, Q 3.44, R 3.73, Y 2.48, S 3.89, T 3.52
T24: F 1.88, L 2.09, R 2.79, I 2.19, C 2.14, H 2.63, V 2.2, S 2.85, A 2.3, E 3.16, W 1.73, K 2.3, P 2.49, N 2.48, M 2.19, G 2.92, Y 1.59, D 3.24, Q 3.03

Variants of: B2
Experiment: as above
Settings: c terminus: a fixed tail appended

Protein stability index of substitutions, site by site:
F1: S 4.48, E 5.1, V 4.19, I 4.23, W 3.78, T 4.67, R 4.45, H 4.58, D 4.61, N 5.02, K 4.17, A 4.71, Q 4.85, C 3.72, G 4.78, Y 3.3, L 4.05, M 4.27, P 4.65
H8: K 2.84, I 2.21, N 2.89, G 2.37, E 3.51, D 2.71, M 2.51, S 3.02, F 2.09, W 2, Q 2.89, P 2.77, Y 3.03, R 2.74, T 2.73, L 2.44, C 2.65, A 2.77, V 3.03
E7: V 1.85, F 1.44, K 2.05, A 2.45, I 2.42, L 2.46, S 2.34, M 2.46, C 2.42, G 2.1, H 2.66, T 2.27, W 2.65, D 2.63, Y 2.1, P 2.6, Q 2.73, N 2.3, R 2.05
G9: K 2.81, P 2.93, D 3.9, W 3.05, R 2.91, A 3.63, L 2.94, N 3.26, M 2.45, H 3.22, I 2.4, Y 2.11, C 2.33, S 3.21, F 2.34, E 3.38, T 3.07, V 3.03, Q 3.05
K5: P 3.55, R 2.68, F 1.7, C 3.14, W 2.41, Q 3.51, H 2.61, S 3.43, L 2.6, I 2.24, D 4.14, Y 2.16, G 2.93, E 4.2, M 2.83, V 2.49, N 3.54, T 3.08, A 2.9
E4: A 2.5, H 2.66, M 1.73, D 2.76, G 2.45, F 1.58, T 2.13, Y 2.1, R 2.19, P 2.58, L 2.43, I 2.24, V 1.8, Q 2.42, S 1.9, K 2.37, W 1.94, N 2.64, C 2.16
H15: D 3.97, T 2.76, K 3.15, A 2.1, S 3.14, W 1.98, I 1.99, P 1.5, L 1.8, Y 1.82, M 1.95, C 2.22, E 3.62, F 2.14, R 3.12, Q 3.57, V 1.76, G 3.72, N 3.77
N14: A 3.17, G 3.21, L 2.29, T 2.69, P 2.79, S 2.68, C 2.29, I 1.98, K 2.99, F 2.53, H 1.69, R 2.86, E 4.16, V 2.15, Y 3.78, Q 3.11, M 2.29, D 3.45
T17: E 4.27, C 2.49, F 1.74, A 2.59, D 4.07
E11: V 1.97, Y 2.08, M 1.98, Q 2.18, F 2.04, C 1.56, R 2.15, W 2.35, D 2.55, H 1.95, N 2.16, A 1.82, P 2.07, L 1.81, I 2.31, G 2.14, T 2.42, S 2.59, K 2.42
M3: W 2.11, A 2.57, H 3.43, K 2.68, N 3.36, E 5.07, D 4.53, V 2.8, S 2.88, C 2.83, Q 3.41, R 2.66, I 2.82, L 2.82, G 3.62, P 2.91, F 2.86, Y 3.06, T 3.44
Y10: G 3.31, V 3.35, C 2.74, H 2.94, N 3.27, E 3.74, I 3.14, K 2.82, S 3.44, A 3.55, T 3.1, D 3.31, R 3.18, W 2.42, F 3.02, M 3.31, L 3.08, Q 3.37, P 3.63
Q2: N 3.8, D 4.1, W 2.62, R 3.07, S 3.98, I 2.06, C 2.57, L 2.96, G 3.7, E 4.49, M 3.42, H 2.28, Y 2.52, P 3.86, T 3.35, A 3.14, K 3.49, F 2.69
F16: R 4.25, V 4.01, Q 4.23, T 4.36, I 3.65, S 4.41, Y 3.29, P 4.4, C 4.06, N 4.31, K 4.52, W 1.96, M 3.87, D 4.71, E 4.5, A 4.17, L 4.21, G 4.23, H 4.09
M13: R 2.68, S 3.04, F 2.82, I 2.52, D 3.79, G 3.75, Y 2.38, A 3.23, N 3.81, Q 3.33, H 3.13, C 2.93, W 2.12, T 3.36, E 3.67, K 2.87, L 2.61, P 3.51, V 2.46
N12: Q 2.51, P 2.37, S 2.3, C 2.06, L 2.14, K 2.44, V 2.04, A 2.19, D 3.65, I 1.94, G 2.98, H 2.38, E 3.57, F 2.17, Y 1.84, R 2.34, W 1.83, M 1.99, T 2.76
I6: P 3.32, E 4.13, C 2.64, S 3.18, T 2.87, M 2.84, V 3, Q 3.32, L 3.44, W 2.06, N 2.87, Y 2.97, K 3.07, F 2.15, H 3.24, A 3.27, D 3.25, G 2.66, R 2.6

From the supplement of paper PMC10567573
